Experimental data reported in publication PMC2841545 (Protein Engineering, Design and Selection, 2010).

Target: ABL1 SH2 domain (Homo sapiens (clone BC059260 maps to …, UniProt P00519))
Assay: ELISA

Chain of ABL1 SH2 domain (Homo sapiens (P00519 whole entry, looked up, the tested form may be a part): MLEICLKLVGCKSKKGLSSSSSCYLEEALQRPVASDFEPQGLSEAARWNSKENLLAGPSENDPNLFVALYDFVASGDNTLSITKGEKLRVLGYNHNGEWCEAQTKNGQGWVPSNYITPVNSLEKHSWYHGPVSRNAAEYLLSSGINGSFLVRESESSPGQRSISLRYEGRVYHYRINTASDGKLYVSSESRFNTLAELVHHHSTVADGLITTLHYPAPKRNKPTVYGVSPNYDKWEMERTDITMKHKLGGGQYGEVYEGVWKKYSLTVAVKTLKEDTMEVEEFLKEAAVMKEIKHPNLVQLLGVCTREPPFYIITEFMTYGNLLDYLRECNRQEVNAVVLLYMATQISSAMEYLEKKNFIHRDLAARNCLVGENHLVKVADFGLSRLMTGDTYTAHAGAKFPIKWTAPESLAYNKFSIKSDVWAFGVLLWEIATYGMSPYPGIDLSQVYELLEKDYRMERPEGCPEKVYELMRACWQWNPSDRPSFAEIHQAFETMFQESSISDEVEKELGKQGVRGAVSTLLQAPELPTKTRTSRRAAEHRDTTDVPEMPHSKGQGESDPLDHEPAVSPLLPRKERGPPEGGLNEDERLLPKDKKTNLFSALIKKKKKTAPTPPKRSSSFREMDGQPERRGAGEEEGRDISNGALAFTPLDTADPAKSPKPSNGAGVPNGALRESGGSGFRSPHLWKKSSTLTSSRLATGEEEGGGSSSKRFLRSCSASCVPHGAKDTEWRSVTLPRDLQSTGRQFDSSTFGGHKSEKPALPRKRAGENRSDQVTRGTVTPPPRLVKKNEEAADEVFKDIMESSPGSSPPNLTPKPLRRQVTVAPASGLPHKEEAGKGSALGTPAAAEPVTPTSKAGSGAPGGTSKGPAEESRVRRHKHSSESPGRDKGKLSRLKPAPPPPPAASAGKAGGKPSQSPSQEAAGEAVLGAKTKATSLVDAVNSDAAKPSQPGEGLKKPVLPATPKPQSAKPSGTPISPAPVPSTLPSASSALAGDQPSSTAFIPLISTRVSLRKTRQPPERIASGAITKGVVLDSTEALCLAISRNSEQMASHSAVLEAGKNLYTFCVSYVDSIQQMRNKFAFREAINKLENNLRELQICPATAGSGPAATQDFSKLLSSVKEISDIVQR

| binding result | Binder |
| --- | --- |
| binds | scFv 43H02 (Group ai, selected on ABL1) (scFv, V domains shown) VH: EVQLLESGGGLVKPGGSLRLSCAASGFTFDDYAMHWVRQAPGKGLEWVSGISWNSGSIGYADSVKGRFTISRDNAKNSLYLQMNSLRAEDTALYYCAKGGPGIRYPDAFDIWGQGTLVTVSS VL: not shown |
| binds | scFv 43_E02 (Group aiii, selected on ABL1) (scFv, V domains shown) VH: EVQLLESGGGLVQPGRSLRLSCAASGFTFDDYAMHWVRQAPGKGLEWVSGISWNSGSIGYADSVKGRFTISRDNAKNSLYLQMNSLRAEDTALYYCAKGGPGIRYPDAFDIWGQGTMVTVSS VL: DIQMTQSPSSLSASVGDRVTITCRASQSIRNDLGWYQQKPGKAPKLLIYAASSLQSGVPSRFSGSGSGTDFTLTISSLQPEDFATYYCQQSSSTPITFGGGTKVEIK |
